Experiment [1] has as its target T1, CD16A on human primary NK cells (human, UniProt P08637 17-254).
T1 construct: whole, on cells; also called primary natural killer (NK) cells
The experiment is described as follows: flow cytometry (MFI, PE-A) on human primary NK cells, donor SLB190071. The protocol: (§1) Human PBMC cells were thawed (Sailybio, SLB190084 & SLB190071), and NK cells were enriched and isolated using a human NK cell enrichment kit (Stemcell, 19055) and centrifuged at 400 g for 5 min. The supernatant was removed, and the cells were resuspended in PBS. After counting, the cells were adjusted to a density of 2×10⁶ cells/mL, and the cell suspension was added to a U-bottom 96-well plate at 100 μL/well. Then, the test antibody was added to make a final concentration of 100 nM, and subjected to a 6-fold dilution to obtain 10 gradients. The mixture was left to stand on ice for a reaction for 1 h. The mixture was centrifuged at 300 g for 5 min, and the supernatant was removed. The cells were washed once with PBS. The mixture was centrifuged at 300 g for 5 min, and PBS was removed. 100 μL of PE-anti-human Fc antibody (Southern Biotech, 2040-09) diluted at a ratio of 1:200 was added to each well. The mixture was incubated on ice for 30 min in the dark. The mixture was centrifuged at 400 g for 5 min, and the supernatant was removed. The cells were washed twice with PBS, and then resuspended in 100 μL of PBS. A fluorescence shift assay was performed by using a flow cytometer (BD, Facscelesta). […] The control antibody used in FIGS. 2A and 2B was the same as that in Example 5.
In this example, the binding of anti-CD16A/HER2 and anti-CD16A/BCMA bispecific antibodies (subjected to gradient dilution) of the present invention to primary NK cells was assayed by flow cytometry. The assay method was the same as that in Example 6.
On the technique in general: Flow cytometry measures light scatter and fluorescence of single cells or particles in a stream.

Experiment [2] deals with T1, CD16A on human primary NK cells. The experiment is described as follows: flow cytometry (MFI, PE-anti-human Fc) on human primary NK cells, donor SLB190084. The method, then:
as §1

Experiment [3] concerns the target T2, human CD16A (type 158V) on GS-CHO cells (human, UniProt P08637 17-254).
T2 construct: whole, on cells; also called GS-CHO cells expressing human CD16A
Nature of the experiment: flow cytometry (MFI, PE-anti-human Fc) on GS-CHO cells expressing human CD16A (type 158V). The protocol:
After counting, the cells were adjusted to a density of 2×10⁶ cells/mL, and the cell suspension was added to a U-bottom 96-well plate at 100 μL/well. […] The mixture was centrifuged at 300 g for 5 min, and the supernatant was removed. The cells were washed once with PBS. The mixture was centrifuged at 300 g for 5 min, and PBS was removed. 100 μL of PE-anti-human Fc antibody (Southern Biotech, 2040-09) diluted at a ratio of 1:200 was added to each well. The mixture was incubated on ice for 30 min in the dark. The mixture was centrifuged at 400 g for 5 min, and the supernatant was removed. The cells were washed twice with PBS, and then resuspended in 100 μL of PBS. A fluorescence shift assay was performed by using a flow cytometer (BD, Facscelesta).

T1 sequence (P08637 17-254): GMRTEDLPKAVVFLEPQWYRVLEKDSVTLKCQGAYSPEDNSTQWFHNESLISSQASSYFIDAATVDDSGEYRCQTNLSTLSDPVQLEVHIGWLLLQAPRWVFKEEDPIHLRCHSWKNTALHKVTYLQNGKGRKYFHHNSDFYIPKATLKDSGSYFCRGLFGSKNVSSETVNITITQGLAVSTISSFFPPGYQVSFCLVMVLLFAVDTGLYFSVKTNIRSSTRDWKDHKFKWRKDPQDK
T2 sequence (P08637 17-254 F176V): as the sequence (P08637 17-254) above, with F160V counted along it

B1: 16A067 (bispecific antibody, human IgG1, kappa, L234A L235A)
heavy 1: not shown
heavy 2: EVQLVESGGGLVQPGRSLRLSCAASGFTFGDYAIHWVRQAPGKGLEWVSGISWDSSSIAYADSVKGRFTISRDNAKNSLYLQMNSLRAEDTAVYYCAKDSPVRDSFGSIAFDIWGQGTMVTVSSASTKGPSVFPLAPSSKSTSGGTAALGCLVKDYFPEPVTVSWNSGALTSGVHTFPAVLQSSGLYSLSSVVTVPSSSLGTQTYICNVNHKPSNTKVDKKVEPKSCDKTHTCPPCPAPEAAGGPSVFLFPPKPKDTLMISRTPEVTCVVVDVSHEDPEVKFNWYVDGVEVHNAKTKPREEQYNSTYRVVSVLTVLHQDWLNGKEYKCKVSNKALPAPIEKTISKAKGQPREPQVCTLPPSRDELTKNQVSLSCAVKGFYPSDIAVEWESNGQPENNYKTTPPVLDSDGSFFLVSKLTVDKSRWQQGNVFSCSVMHEALHNHYTQKSLSLSPGK
light: not shown
notes: 1+1 knob-into-hole format, sdAb-Fc arm and Fab-Fc arm, LALA; also called anti-CD16A/BCMA bispecific antibody (Y88A3 x ADI384-56)
The EC50 is the midpoint of the concentration-response curve. In turn, B1 yielded an EC50 in experiment [1] of 14.2 nM.

B2: 16A068 (bispecific antibody, human IgG1, kappa, L234A L235A)
heavy 1: not shown
heavy 2: EVQLVESGGGLVQPGRSLRLSCAASGFTFGDYAIHWVRQAPGKGLEWVSGISWDSSSIAYADSVKGRFTISRDNAKNSLYLQMNSLRAEDTAVYYCAKDSPVRDSFGSIAFDIWGQGTMVTVSSASTKGPSVFPLAPSSKSTSGGTAALGCLVKDYFPEPVTVSWNSGALTSGVHTFPAVLQSSGLYSLSSVVTVPSSSLGTQTYICNVNHKPSNTKVDKKVEPKSCDKTHTCPPCPAPEAAGGPSVFLFPPKPKDTLMISRTPEVTCVVVDVSHEDPEVKFNWYVDGVEVHNAKTKPREEQYNSTYRVVSVLTVLHQDWLNGKEYKCKVSNKALPAPIEKTISKAKGQPREPQVCTLPPSRDELTKNQVSLSCAVKGFYPSDIAVEWESNGQPENNYKTTPPVLDSDGSFFLVSKLTVDKSRWQQGNVFSCSVMHEALHNHYTQKSLSLSPGK
light: not shown
notes: 1+1 knob-into-hole format, sdAb-Fc arm and Fab-Fc arm, LALA; also called anti-CD16A/BCMA bispecific antibody (Y99F6 x ADI384-56)
The molecule B2 had an EC50 in experiment [1] of 50.5 nM.

B3: 16A069 (bispecific antibody, human IgG1, kappa, L234A L235A)
heavy 1: not shown
heavy 2: EVQLVESGGGLVQPGRSLRLSCAASGFTFGDYAIHWVRQAPGKGLEWVSGISWDSSSIAYADSVKGRFTISRDNAKNSLYLQMNSLRAEDTAVYYCAKDSPVRDSFGSIAFDIWGQGTMVTVSSASTKGPSVFPLAPSSKSTSGGTAALGCLVKDYFPEPVTVSWNSGALTSGVHTFPAVLQSSGLYSLSSVVTVPSSSLGTQTYICNVNHKPSNTKVDKKVEPKSCDKTHTCPPCPAPEAAGGPSVFLFPPKPKDTLMISRTPEVTCVVVDVSHEDPEVKFNWYVDGVEVHNAKTKPREEQYNSTYRVVSVLTVLHQDWLNGKEYKCKVSNKALPAPIEKTISKAKGQPREPQVCTLPPSRDELTKNQVSLSCAVKGFYPSDIAVEWESNGQPENNYKTTPPVLDSDGSFFLVSKLTVDKSRWQQGNVFSCSVMHEALHNHYTQKSLSLSPGK
light: not shown
notes: 1+1 knob-into-hole format, sdAb-Fc arm and Fab-Fc arm, LALA; also called anti-CD16A/BCMA bispecific antibody (Y100D6 x ADI384-56)
B3: the midpoint of the response in experiment [1], the EC50, lay at 15.3 nM.

B4: 16A070 (bispecific antibody, human IgG1, kappa, L234A L235A)
heavy 1: not shown
heavy 2: EVQLVESGGGLVQPGRSLRLSCAASGFTFGDYAIHWVRQAPGKGLEWVSGISWDSSSIAYADSVKGRFTISRDNAKNSLYLQMNSLRAEDTAVYYCAKDSPVRDSFGSIAFDIWGQGTMVTVSSASTKGPSVFPLAPSSKSTSGGTAALGCLVKDYFPEPVTVSWNSGALTSGVHTFPAVLQSSGLYSLSSVVTVPSSSLGTQTYICNVNHKPSNTKVDKKVEPKSCDKTHTCPPCPAPEAAGGPSVFLFPPKPKDTLMISRTPEVTCVVVDVSHEDPEVKFNWYVDGVEVHNAKTKPREEQYNSTYRVVSVLTVLHQDWLNGKEYKCKVSNKALPAPIEKTISKAKGQPREPQVCTLPPSRDELTKNQVSLSCAVKGFYPSDIAVEWESNGQPENNYKTTPPVLDSDGSFFLVSKLTVDKSRWQQGNVFSCSVMHEALHNHYTQKSLSLSPGK
light: not shown
notes: 1+1 knob-into-hole format, sdAb-Fc arm and Fab-Fc arm, LALA; also called anti-CD16A/BCMA bispecific antibody (Y95H1 x ADI384-56)
On to B4, for which the EC50 in experiment [1] worked out at 7.96 nM.

B5: Isotype-IgG1-Fc-LALA (antibody)
variable region (heavy or light not stated; listed first): EVRLLESGGGLVQPGGSLRLSCAASGFTFSNYAMGWVRQAPGKCLEWVSAISGSGGSTYYADSVKGRFTTSRDDSKNALYLQMNSLRAEDTAVYYCARGGPGWYAADVWGQGTTVTVSS
variable region (heavy or light not stated; listed second): DIQMTQSPSSLSASVGDRVTITCRASQSISSYLNWYQQKPGKAPKLLIYAASSLQSGVPSRFSGSGSGTDFTLTISSLQPEDFATYYCQQADLPAFAFGCGTKVEIK
notes: also called anti-Hen Egg Lysozyme (HEL) antibody; negative control
On to B5, for which the binding result in experiment [2] is “no binding (tested: log 2 (100 nM))”; in experiment [3], “no binding (tested: log 2.8 (about 600 nM))”.
